According to patent US20050267016A1, “CD-10 activated prodrug compounds” (priority 2001, published 2005):

Assays:
Porcine Kidney CD10 [1] = test: Hydrolysis by purified CD10; assay type: biochemical; settings: release of Leu-pNA vs Leu-Dox, 37° C., pH 7.4
[2] = system: LNCaP (prostate carcinoma) cells; settings: ratio of IC50
Protocol: (§1) Adherent cells, LNCaP (prostate carcinoma), HT-29 (colon carcinoma) and PC-3 (prostate carcinoma), were cultured in DMEM media containing 10% heat inactivated fetal calf serum (FCS). On the day of the study the cells were detached from the plate with a trypsin solution. The collected cells were washed and resuspended at a concentration of 0.25×10^6 cells/ml in DMEM containing 10% FCS. 100 μl of cell suspension were added to 96 well plates and the plates were incubated for 3 hours to allow the cells to adhere. […] The plates were then incubated for 24 hours, pulsed with 10 μl of a 100 μCi/ml ^3H-thymidine and incubated for an additional 24 hours (total incubation time 48 hours). The plates were harvested using a 96 well Harvester (Packard Instruments) and counted on a Packard Top Count Counter. Four parameter logistic curves were fitted to the ^3H-thymidine incorporation as a function of drug molarity using Prism software to determine IC50 values.
as §1, with “carcinoma), PC-3 (prostate” for “carcinoma), HT-29 (colon”, “and 22 RV1” for “and PC-3”, “with 1:0” for “with 10”
(§2) The effect of two known inhibitors of CD10 on prodrug activity in Ramos, LNCaP and Ball-1 cells was evaluated. The IC50 of Suc-βAla-Ile-Ala-Leu-Dox was determined in the presence of increasing concentration of the CD10 inhibitors, phosphoramidon and thiorphan.

[3] = Pharmacokinetic/metabolism study, single IV bolus; settings: mice
Protocol: (§4) Plasma was obtained from three individual animals in each group at 5 minutes, 1, 2, 4, or 6 hr.

Namalwa cells (CD10pos) = test: cells; assay type: cell-based; settings: ratio of IC50
Protocol: (§3) Suspension cells, BALL-1, Ramos and Namalwa cells were cultured in RPMI media containing 10% heat inactivated fetal calf serum (FCS). On the day of the study, the cells were collected, washed and resuspended at a concentration of 0.5×10^6 cells/ml in RPMI containing 10% FCS. 100 µl of cell suspension was added to 96 well plates. […] Finally 10 μl of a 100 μCi/ml ^3H-thymidine was added per well and the plates were incubated for 24 hours. The plates were harvested using a 96 well Harvester (Packard Instruments) and counted on a Packard Top Count counter. Four parameter logistic curves were fitted to the ^3H-thymidine incorporation as a function of drug molarity using Prism software to determine IC50 values.

[4] = mouse, in vivo, iv, 100 umol/kg
Protocol: as §4

Porcine Kidney CD10 [5] = test: Hydrolysis by purified CD10; assay type: biochemical
Protocol: Reaction products were analyzed by HPLC with fluorescence detection. Rates were essentially linear over the incubation period. The observed product was Leu-doxorubicin.

[6] = Second single dose Maximum Tolerated Dose (SD-MTD) study, 49 days; settings: mouse, in vivo
Protocol: In a second single dose Maximum Tolerated Dose (SD-MTD) study, groups of five normal ICR mice were administered intravenous bolus doses of Suc-βAla-Leu-Ala-Leu-Dox. The mice were observed daily for 49 days and body weights measured twice weekly.
In a second single dose Maximum Tolerated Dose (SD-MTD) study, groups of five normal ICR mice were administered intravenous bolus doses of Suc-Leu-Ala-Leu-Dox. The mice were observed daily for 49 days and body weights measured twice weekly.
In a second single dose Maximum Tolerated Dose (SD-MTD) study, groups of five normal ICR mice were administered intravenously bolus doses of Suc-Ile-Ala-Leu-Dox. The mice were observed daily for 49 days and body weights measured twice weekly.
In a second single dose Maximum Tolerated Dose (SD-MTD) study, groups of five normal ICR mice were administered intravenous bolus doses of Suc-βAla-Ile-Ala-Leu-Dox. The mice were observed daily for 49 days and body weights measured twice weekly.

LNCaP xenografts = test: LNCaP xenograft in SCID mice, Q6DX2, equitoxic comparison (Example 27); assay type: in vivo, C.B-17.SCID mice
Protocol: All compounds except Suc-βAla-Leu-Ala-Leu-Dox (three levels) were dosed at two levels with the goal to get a dose response for all compounds.
Knowing that the LNCaP tumor bearing nude mice have weight loss, we chose very conservative dose levels for each compound estimated to be well-tolerated equitoxic doses based on earlier studies and SD-MTD results. The high dose level for repeat dosing is usually 80% of their SD-MTD, and the low dose level is 80% of the high dose level. Accordingly, groups of ten male CD17.SCID mice, subcutaneously injected with 2.5 million LNCaP cells, were treated intravenously with the compounds at the levels described in Table 22 at six day intervals for a total of two identical doses (Q6DX2).
LNCaP tumors grew well in SCID mice, but the SCID mice with LNCaP tumor xenografts experienced severe weight loss, as 80% of control mice had more than 25% of weight loss by the end of the study. Nevertheless, the efficacy of different treatments at approximately equitoxic levels were compared based on the time it took for 50% of mice to reach toxic weight loss and the total numbers of mice with toxic weight loss at the end of study.

Ramos cells (CD10pos) = test: cells; settings: ratio of IC50
Protocol: as §3, §2

[7] = mouse, in vivo, iv, 100 umol/kg; remark: listed apart in the source
Protocol: as §4

Compound | rate of cleavage relative to Suc-βAla-Leu-Ala-Leu-Dox (Porcine Kidney CD10 [1]) | Ratio PC-3:LNCaP [2] | Major Plasma Metabolite [3] | Ratio Ball-1:Namalwa (Namalwa cells (CD10pos)) | AUC(0-t) [4] | % hydrolysis/10 hr (Porcine Kidney CD10 [5]; 12.5 μg/mL, 37° C., pH 7.4, product Leu-doxorubicin) | Fraction hydrolyzed relative to standard (Porcine Kidney CD10 [5]; standard Suc-βAla-Leu-Ala-Leu-Dox) | MTD [6] | MTD ([6]; iv) | Time: 50% Weight Loss (LNCaP xenografts; 58.3 mg/kg Q6DX2) | Time: 100% Weight Loss (LNCaP xenografts; 58.3 mg/kg Q6DX2) | Time: 50% Weight Loss (LNCaP xenografts; 70.5 mg/kg Q6DX2) | Time: 100% Weight Loss (LNCaP xenografts; 70.5 mg/kg Q6DX2) | Ratio Ball-1:Ramos (Ramos cells (CD10pos)) | Plasma AUC0-6 hr of AL-Dox or AG-Dox* [7] | Plasma AUC0-6 hr of L-Dox or G-Dox* [7]
Suc-βAla-Leu-Ala-Leu-pNA | 590 times | – | – | – | – | – | – | – | – | – | – | – | – | – | – | –
COc1cccc2c1C(=O)c1c(O)c3c(c(O)c1C2=O)C[C@@](O)(C(=O)CO)C[C@@H]3O[C@H]1C[C@H](NC(=O)[C@H](CC(C)C)NC(=O)[C@H](C)NC(=O)[C@H](CC(C)C)NC(=O)CCC(=O)O)[C@H](O)[C@H](C)O1 [Suc-Leu-Ala-Leu-Dox] | – | 50 | Leu-Dox | ~35 | 634 µM·h | 8.3 % hydrolysis/10 hr | 0.75 | 42 mg/kg | 71 mg/kg | 33 days | 61 days | 26 days | 47 days | ~30 | 1.6 µM·h | 5.1 µM·h
